{
  "source": "patent US11278600B2",
  "about": "“Human alpha-galactosidase variants” (Codexis, Inc., priority 2014, dated 2022)",
  "type_in_all_cases": "biochemical",
  "key": {"[1]": {"experiment": "HTP-analysis of supernatants pretreated with acid (MUGal hydrolysis)", "details": "challenge at pH 4.2; activity of the variant/activity of WT GLA (SEQ ID NO: 5); yeast supernatant", "outline": "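Yeast INVSc1 supernatant, GLA variants; acid challenge: McIlvaine pH 3.3-4.3, 37° C., 1-3 h. Assay: MUGal in McIlvaine pH 4.8 plus citrate pH 4.3, 37° C., 30-180 min, Na2CO3 stop, Ex 355/Em 448 nm.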"}, "[2]": {"experiment": "HTP-analysis of supernatants pretreated with base (MUGal hydrolysis)", "details": "challenge at pH 7.1; activity of the variant/activity of WT GLA (SEQ ID NO: 5); yeast supernatant", "outline": "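GLA variants were secreted by transformed INVSc1 yeast grown 66-84 h at 30° C. Supernatants were exposed to neutral-to-basic buffers (pH 7.0-9.7) at 37° C for 1-18 h, then assayed with MUGal in acidic citrate/McIlvaine buffer, with fluorescence read after quenching.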"}, "[3]": {"experiment": "HTP-analysis of yeast culture supernatants, no challenge (MUGal hydrolysis)", "details": "activity of the variant/activity of WT GLA (SEQ ID NO: 5), yeast supernatant", "outline": "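Activity read as 4-methylumbelliferyl α-D-galactopyranoside hydrolysis: fluorescence (355/448 nm) after sodium carbonate stop, following 30-180 min at 37° C with 2 mM MUGal stock at pH 4.6–4.8. Enzyme source is unchallenged culture supernatant of INVSc1 yeast expressing GLA variants, grown 66-84 h at 30° C.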"}},
  "data": [
    {"molecule": "68 (protein, Synthetic Polypeptide sequence of Variant No. 68 of mature Human GLA) LDNGLARTPTMGWLHWERFMCNLDCQEEPDSCISEKLFMEMAELMVSEGWKDAGYEYLCIDDCWMAPQRDSEGRLQADPQRFPSGIRQLANYVHSKGLKLGIYADVGNKTCAGFPGSFGYYDIDAQTFADWGVDLLKFDGCYCDSLENLADGYKHMSLALNRTGRSIVYSCEWPLYMWPFQKPNYTEIRQYCNHWRNFADIDDSWKSIKSILDWTSFNQERIVDVAGPGGWNDPDMLVIGNFGLSWNQQVTQMALWAIMAAPLFMSNDLRHISPQAKALLQDKDVIAINQDPLGKQGYQLRQGDNFEVWERPLSGLAWAVAMINRQEIGGPRSYTIAVASLGKGVACNPACFITQLLPVKRKLGFYEWTSRLRSHINPTGTVLLQLENTMQMSKDLLL", "values": [
      {"measurement": "Relative Activity of GLA Variants After Challenge at pH 4.2", "setting": "[1]", "result": "++ (++ = >1.5 to 2.5 relative activity over WT GLA (SEQ ID NO: 5))"},
      {"measurement": "Relative Activity of GLA Variants After Challenge at pH 7.1", "setting": "[2]", "result": "+ (+ = 0.5 to 1.5 relative activity over WT GLA (SEQ ID NO: 5))"},
      {"measurement": "Relative Activity of GLA Variants After No Challenge (NC)", "setting": "[3]", "result": "+ (+ = 0.5 to 1.5 relative activity over WT GLA (SEQ ID NO: 5))"}
    ]},
    {"molecule": "72 (protein, Synthetic Polypeptide sequence of Variant No. 72 of mature Human GLA) LDNGLARTPTMGWLHWERFMCNLDCQEEPDSCISEKLFMEMAELMVSEGWKDAGYEYLCIDDCWMAPQRDSEGRLQADPQRFPHGIRQLANYVHSKGLKLGIYADVGNKTCAGFPGSFGYYDIDAQTFADWGVDLLKFDGCYCDSLENLADGYKHMSLALNRTGRSVVYSCEWPLYMWPFQKPNYTEIRQYCNHWRNFADIDDSWKSIKSILDWTSFNQERIVDVAGPGGWNDPDMLVIGNFGLSWNQQVTQMALWAIMAAPLFMSNDLRHISPQAKALLQDKDVIAINQDPLGKQGYQLRQGDNFEVWERPLSGLAWAVAMINRQEIGGPRSYTIAVASLGKGVACNPACFITQLLPVKRKLGFYEWTSRLRSHINPTGTVLLQLENTMQMSKDLLL", "values": [
      {"measurement": "Relative Activity of GLA Variants After Challenge at pH 4.2", "setting": "[1]", "result": "+ (+ = 0.5 to 1.5 relative activity over WT GLA (SEQ ID NO: 5))"},
      {"measurement": "Relative Activity of GLA Variants After Challenge at pH 7.1", "setting": "[2]", "result": "+ (+ = 0.5 to 1.5 relative activity over WT GLA (SEQ ID NO: 5))"},
      {"measurement": "Relative Activity of GLA Variants After No Challenge (NC)", "setting": "[3]", "result": "+ (+ = 0.5 to 1.5 relative activity over WT GLA (SEQ ID NO: 5))"}
    ]},
    {"molecule": "69 (protein, Synthetic Polypeptide sequence of Variant No. 69 of mature Human GLA) LDNGLARTPTMGWLHWERFMCNLDCQEEPDSCISEKLFMEMAELMVSEGWKDAGYEYLCIDDCWMAPQRDSEGRLQADPQRFPHGIRQLANYVHSKGLKLGLYADVGNKTCAGFPGSFGYYDIDAQTFADWGVDLLKFDGCYCDSLENLADGYKHMSLALNRTGRSIVYSCEWPLYMWPFQKPNYTEIRQYCNHWRNFADIDDSWKSIKSILDWTSFNQERIVDVAGPGGWNDPDMLVIGNFGLSWNQQVTQMALWAIMAAPLFMSNDLRHISPQAKALLQDKDVIAINQDPLGKQGYQLRQGDNFEVWERPLSGLAWAVAMINRQEIGGPRSYTIAVASLGKGVACNPACFITQLLPVKRKLGFYEWTSRLRSHINPTGTVLLQLENTMQMSKDLLL", "values": [
      {"measurement": "Relative Activity of GLA Variants After Challenge at pH 4.2", "setting": "[1]", "result": "+ (+ = 0.5 to 1.5 relative activity over WT GLA (SEQ ID NO: 5))"},
      {"measurement": "Relative Activity of GLA Variants After Challenge at pH 7.1", "setting": "[2]", "result": "+ (+ = 0.5 to 1.5 relative activity over WT GLA (SEQ ID NO: 5))"},
      {"measurement": "Relative Activity of GLA Variants After No Challenge (NC)", "setting": "[3]", "result": "+ (+ = 0.5 to 1.5 relative activity over WT GLA (SEQ ID NO: 5))"}
    ]},
    {"molecule": "70 (protein, Synthetic Polypeptide sequence of Variant No. 70 of mature Human GLA) LDNGLARTPTMGWLHWERFMCNLDCQEEPDSCISEKLFMEMAELMVSEGWKDAGYEYLCIDDCWMAPQRDSEGRLQADPQRFPHGIRQLANYVHSKGLKLGLYADVGNKTCAGFPGSFGYYDIDAQTFADWGVDLLKFDGCYCDSLENLADGYKHMSLALNRTGRSIVYSCEWPLYMWPFQKPNYTEIRQYCNHWRNFADIDDSWKSIKSILDWTSFNQERIVDVAGPGGWNDPDMLVIGNFGLSWNQQVTQMALWAIMAAPLFMSNDLRHISPQAKALLQDKDVIAINQDPLGKQGYQLRQGDNFEVWERPLSGLAWAVAMINRQEIGGPRSYTIAVASLGKGVACNPACFITQLLPVKRKLGFYEWTSRLRSHINPTGTVLLQLENTMQMSVDLLL", "values": [
      {"measurement": "Relative Activity of GLA Variants After Challenge at pH 4.2", "setting": "[1]", "result": "+ (+ = 0.5 to 1.5 relative activity over WT GLA (SEQ ID NO: 5))"},
      {"measurement": "Relative Activity of GLA Variants After Challenge at pH 7.1", "setting": "[2]", "result": "+ (+ = 0.5 to 1.5 relative activity over WT GLA (SEQ ID NO: 5))"},
      {"measurement": "Relative Activity of GLA Variants After No Challenge (NC)", "setting": "[3]", "result": "+ (+ = 0.5 to 1.5 relative activity over WT GLA (SEQ ID NO: 5))"}
    ]},
    {"molecule": "71 (protein, Synthetic Polypeptide sequence of Variant No. 71 of mature Human GLA) LDNGLARTPTMGWLHWERFMCNLDCQEEPDSCISEKLFMEMAELMVSEGWKDAGYEYLCIDDCWMAPQRDSEGRLQADPQRFPHGIRQLANYVHSKGLKLGIYADVGNKTCAGFPGSFGYYDTDAQTFADWGVDLLKFDGCYCDSLENLADGYKHMSLALNRTGRSIVYSCEWPLYMWPFQKPNYTEIRQYCNHWRNFADIDDSWKSIKSILDWTSFNQERIVDVAGPGGWNDPDMLVIGNFGLSWNQQVTQMALWAIMAAPLFMSNDLRHISPQAKALLQDKDVIAINQDPLGKQGYQLRQGDNFEVWERPLSGLAWAVAMINRQEIGGPRSYTIAVASLGKGVACNPACFITQLLPVKRKLGFYEWNSRLRSHINPTGTVLLQLENTMQMSKDLLL", "values": [
      {"measurement": "Relative Activity of GLA Variants After Challenge at pH 4.2", "setting": "[1]", "result": "+ (+ = 0.5 to 1.5 relative activity over WT GLA (SEQ ID NO: 5))"},
      {"measurement": "Relative Activity of GLA Variants After Challenge at pH 7.1", "setting": "[2]", "result": "++ (++ = >1.5 to 2.5 relative activity over WT GLA (SEQ ID NO: 5))"},
      {"measurement": "Relative Activity of GLA Variants After No Challenge (NC)", "setting": "[3]", "result": "++ (++ = >1.5 to 2.5 relative activity over WT GLA (SEQ ID NO: 5))"}
    ]},
    {"molecule": "74 (protein, Synthetic Polypeptide sequence of Variant No. 74 of mature Human GLA) LDNGLARTPTMGWLHWERFMCNLDCQEEPDSCISEKLFMEMAELMVSEGWKDAGYEYLCIDDCWMAPQRDSEGRLQADPQRFPHGIRQLANYVHSKGLKLGIYADVGNKTCAGFPGSFGYYDIDAQTFADWGVDLLKFDGCYCDSLENLADGYKHMSLALNRTGRSIVYSCEWPLYMWPFQKPNYTEIRQYCNHWRNFADIDDSWMSIKSILDWTSFNQERIVDVAGPGGWNDPDMLVIGNFGLSWNQQVTQMALWAIMAAPLFMSNDLRHISPQAKALLQDKDVIAINQDPLGKQGYQLRQGDNFEVWERPLSGLAWAVAMINRQEIGGPRSYTIAVASLGKGVACNPACFITQLLPVKRKLGFYEWTSRLRSHINPTGTVLLQLENTMQMSKDLLL", "values": [
      {"measurement": "Relative Activity of GLA Variants After Challenge at pH 4.2", "setting": "[1]", "result": "+++ (+++ = >2.5 relative activity over WT GLA (SEQ ID NO: 5))"},
      {"measurement": "Relative Activity of GLA Variants After Challenge at pH 7.1", "setting": "[2]", "result": "++ (++ = >1.5 to 2.5 relative activity over WT GLA (SEQ ID NO: 5))"},
      {"measurement": "Relative Activity of GLA Variants After No Challenge (NC)", "setting": "[3]", "result": "+ (+ = 0.5 to 1.5 relative activity over WT GLA (SEQ ID NO: 5))"}
    ]},
    {"molecule": "75 (protein, Synthetic Polypeptide sequence of Variant No. 75 of mature Human GLA) LDNGLARTPTMGWLHWERFMCNLDCQEEPDSCISEKLFMEMAELMVSEGWKDAGYEYLCIDDCWMAPQRDSEGRLQADPQRFPHGIRQLANYVHSKGLKLGIYADVGNKTCAGFPGSFGYYDIDAQTFADWGVDLLKFDGCYCDSLENLADGYKHMSLALNRTGRSIVYSCEWPLYMWPFQKPNYTEIRQYCNHWRNFADIDDSWQSIKSILDWTSFNQERIVDVAGPGGWNDPDMLVIGNFGLSWNQQVTQMALWAIMAAPLFMSNDLRHISPQAKALLQDKDVIAINQDPLGKQGYQLRQGDNFEVWERPLSGLAWAVAMINRQEIGGPRSYTIAVASLGKGVACNPACFITQLLPVKRKLGFYEWTSRLRSHINPTGTVLLQLENTMQMSKDLLL", "values": [
      {"measurement": "Relative Activity of GLA Variants After Challenge at pH 4.2", "setting": "[1]", "result": "+++ (+++ = >2.5 relative activity over WT GLA (SEQ ID NO: 5))"},
      {"measurement": "Relative Activity of GLA Variants After Challenge at pH 7.1", "setting": "[2]", "result": "++ (++ = >1.5 to 2.5 relative activity over WT GLA (SEQ ID NO: 5))"},
      {"measurement": "Relative Activity of GLA Variants After No Challenge (NC)", "setting": "[3]", "result": "+ (+ = 0.5 to 1.5 relative activity over WT GLA (SEQ ID NO: 5))"}
    ]},
    {"molecule": "73 (protein, Synthetic Polypeptide sequence of Variant No. 73) LDNGLARTPTMGWLHWERFMCNLDCQEEPDSCISEKLFMEMAELMVSEGWKDAGYEYLCIDDCWMAPQRDSEGRLQADPQRFPHGIRQLANYVHSKGLKLGIYADVGNKTCAGFPGSFGYYDIDAQTFADWGVDLLKFDGCYCDSLENLADGYKHMSLALNRTGRSIVYSCEWPLYMWPFQKPNYTEIRQYCNHWRNFADIDDSWASIKSILDWTSFNQERIVDVAGPGGWNDPDMLVIGNFGLSWNQQVTQMALWAIMAAPLFMSNDLRHISPQAKALLQDKDVIAINQDPLGKQGYQLRQGDNFEVWERPLSGLAWAVAMINRQEIGGPRSYTIAVASLGKGVACNPACFITQLLPVKRKLGFYEWTSRLRSHINPTGTVLLQLENTMQMSLKDLL", "values": [
      {"measurement": "Relative Activity of GLA Variants After Challenge at pH 4.2", "setting": "[1]", "result": "+++ (+++ = >2.5 relative activity over WT GLA (SEQ ID NO: 5))"},
      {"measurement": "Relative Activity of GLA Variants After Challenge at pH 7.1", "setting": "[2]", "result": "++ (++ = >1.5 to 2.5 relative activity over WT GLA (SEQ ID NO: 5))"},
      {"measurement": "Relative Activity of GLA Variants After No Challenge (NC)", "setting": "[3]", "result": "+ (+ = 0.5 to 1.5 relative activity over WT GLA (SEQ ID NO: 5))"}
    ]}
  ]
}
